Reference: patent publication US20240158497A1 (published 2024)
One block for each binder: values may come before it.

Tests used:
[1] = biological target: T1, human GP130 delta D1-D3 with C-terminal myc-myc hexahistidine tag (human, UniProt P40189 329-619); experiment: Luminex, antigen captured on anti-myc beads
T1 construct: used as CHO supernatant; also called human GP130 delta D1-D3-MMH; GP130 Delta D1-D3 extracellular domain
Description: Aliquots of microspheres with immobilized anti-myc monoclonal antibodies, prepared as described above, were added individually to 1 mL of the each of these protein supernatants and to 500 uL of purified GP130 protein. The microspheres were gently mixed, incubated for two hours at 25° C., washed twice with 1 mL of DBPS, centrifuged to remove the supernatant and finally resuspended in 1 mL of DPBS buffer. Forty eight μL of anti-myc IgG coupled microspheres from individual reactions with full length human GP130 and with each of the human GP130 domain proteins were withdrawn and mixed together in 3.6 mL of PBS+20 mg/mL BSA+0.05% sodium azide (blocking buffer).
From this mixed pool, 75 μL of microspheres were plated per well on a 96 well filter plate (Millipore, Cat. No: MSBVN1250) and mixed with 25 μL of individual anti-human GP130 monoclonal antibodies (0.5 or 5 μg/mL), incubated for two hours at 25° C. and then washed twice with 200 μL of DPBS with 0.05% Tween 20 (washing buffer). To detect and quantify the amounts of bound anti-GP130 antibody levels to individual microspheres, either 100 μL of 2.5 μg/mL R-Phycoerythrin conjugated goat F(ab′)2 anti-human kappa (Southern Biotech, Cat #2063-09) in blocking buffer, was added and incubated for 30 minutes at 25° C. After 30 minutes, the samples were washed twice with 200 μL of washing buffer and resuspended in 150 μL of wash buffer. The Median Fluorescence intensity (MFI) of the microspheres was measured in a Luminex Analyzer.

[2] = biological target: T2, mouse GP130 extracellular domain expressed with a C-terminal myc-myc-hexahistidine tag (mGP130-mmH) (mouse, UniProt Q00560 23-617); experiment: SPR Biacore, mAb captured via anti-hFc, 25 C
T2 construct: Monomeric; the entry includes the myc-myc-His tag
Description: (§1) Equilibrium dissociation constant (KD) for different GP130 reagents binding to purified anti-GP130 monoclonal antibodies were determined using a real-time surface plasmon resonance based Biacore 4000 biosensor. All binding studies were performed in 10 mM HEPES, 150 mM NaCl, 3 mM EDTA, and 0.05% v/v Surfactant Tween-20, pH 7.4 (HBS-ET) running buffer at 25° C. and 37° C. The Biacore sensor surface was first derivatized by amine coupling with a monoclonal mouse anti-human Fc antibody (GE, #BR-1008-39) to capture anti-GP130 monoclonal antibodies. […] Reagents tagged with “mmH” are monomeric, whereas reagents tagged with “mFc” are dimeric. Thus, for example, “hGP130-mmH” is also referred to as “monomeric human GP130,” and “hGP130-mFc” is also referred to as “dimeric human GP130.”
(§2) The association rate (k a) and dissociation rate (kd) were determined by fitting the real-time binding sensorgrams to a 1:1 binding model with mass transport limitation using Scrubber 2.0c curve-fitting software. Binding dissociation equilibrium constant (KD) and dissociative half-life (t ½) were calculated from the kinetic rates as: […]

[3] = biological target: T3, rat GP130 extracellular domain expressed with a C-terminal myc-myc-hexahistidine tag (rGP130-mmH) (rat, UniProt P40190 23-618); experiment: SPR Biacore, mAb captured via anti-hFc, 25 C
T3 construct: Monomeric; the entry includes the myc-myc-His tag
Description: as §1, §2

[4] = biological target: T2, mouse GP130 extracellular domain …; experiment: SPR Biacore, mAb captured via anti-hFc, 37 C
Description: as §1, §2

[5] = biological target: T3, rat GP130 extracellular domain …; experiment: SPR Biacore, mAb captured via anti-hFc, 37 C
Description: as §1, §2

[6] = biological target: T4, human GP130 extracellular domain expressed with a C-terminal myc-myc-hexahistidine tag (human, UniProt P40189 23-619); experiment: SPR (Biacore 4000), mAb captured on anti-human Fc, 37 C
T4 construct: Monomeric reagent; also called hGP130-mmH; hGP130-MMH
Description: as §1, §2

[7] = biological target: T5, Macaca fascicularis GP130 extracellular domain expressed with a C-terminal myc-myc-hexahistidine tag (Macaca fascicularis, UniProt P40189 23-619 (human entry)); experiment: as above
T5 construct: Monomeric reagent; also called mfGP130-mmH; mfGP130-MMH
T5 chain: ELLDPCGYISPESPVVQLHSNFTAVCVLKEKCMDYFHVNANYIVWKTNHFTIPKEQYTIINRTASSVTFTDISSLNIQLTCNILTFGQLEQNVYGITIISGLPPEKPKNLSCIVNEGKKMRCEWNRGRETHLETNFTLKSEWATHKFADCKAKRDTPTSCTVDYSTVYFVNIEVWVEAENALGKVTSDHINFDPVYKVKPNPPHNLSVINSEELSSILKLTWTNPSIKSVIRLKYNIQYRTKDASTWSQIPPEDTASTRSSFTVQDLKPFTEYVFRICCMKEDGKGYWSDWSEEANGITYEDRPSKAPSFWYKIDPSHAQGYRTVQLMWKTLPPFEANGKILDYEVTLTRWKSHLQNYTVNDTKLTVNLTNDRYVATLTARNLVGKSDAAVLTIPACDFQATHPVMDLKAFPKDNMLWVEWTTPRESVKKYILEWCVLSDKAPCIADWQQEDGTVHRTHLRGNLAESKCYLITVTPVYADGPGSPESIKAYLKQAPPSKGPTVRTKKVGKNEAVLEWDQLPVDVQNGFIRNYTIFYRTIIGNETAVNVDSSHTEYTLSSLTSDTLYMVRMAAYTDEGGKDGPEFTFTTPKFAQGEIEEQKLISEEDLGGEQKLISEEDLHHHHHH
Description: as §1, §2

[8] = biological target: T5, Macaca fascicularis GP130 extracellular …; experiment: SPR (Biacore 4000), mAb captured on anti-human Fc, 25 C
Description: as §1, §2

[9] = biological target: T6, human GP130 extracellular domain expressed with a C-terminal mouse IgG2a Fc tag (hGP130-mFc) (human); experiment: SPR Biacore, mAb captured via anti-hFc, 25 C
T6 construct: also called dimeric human GP130
T6 chain: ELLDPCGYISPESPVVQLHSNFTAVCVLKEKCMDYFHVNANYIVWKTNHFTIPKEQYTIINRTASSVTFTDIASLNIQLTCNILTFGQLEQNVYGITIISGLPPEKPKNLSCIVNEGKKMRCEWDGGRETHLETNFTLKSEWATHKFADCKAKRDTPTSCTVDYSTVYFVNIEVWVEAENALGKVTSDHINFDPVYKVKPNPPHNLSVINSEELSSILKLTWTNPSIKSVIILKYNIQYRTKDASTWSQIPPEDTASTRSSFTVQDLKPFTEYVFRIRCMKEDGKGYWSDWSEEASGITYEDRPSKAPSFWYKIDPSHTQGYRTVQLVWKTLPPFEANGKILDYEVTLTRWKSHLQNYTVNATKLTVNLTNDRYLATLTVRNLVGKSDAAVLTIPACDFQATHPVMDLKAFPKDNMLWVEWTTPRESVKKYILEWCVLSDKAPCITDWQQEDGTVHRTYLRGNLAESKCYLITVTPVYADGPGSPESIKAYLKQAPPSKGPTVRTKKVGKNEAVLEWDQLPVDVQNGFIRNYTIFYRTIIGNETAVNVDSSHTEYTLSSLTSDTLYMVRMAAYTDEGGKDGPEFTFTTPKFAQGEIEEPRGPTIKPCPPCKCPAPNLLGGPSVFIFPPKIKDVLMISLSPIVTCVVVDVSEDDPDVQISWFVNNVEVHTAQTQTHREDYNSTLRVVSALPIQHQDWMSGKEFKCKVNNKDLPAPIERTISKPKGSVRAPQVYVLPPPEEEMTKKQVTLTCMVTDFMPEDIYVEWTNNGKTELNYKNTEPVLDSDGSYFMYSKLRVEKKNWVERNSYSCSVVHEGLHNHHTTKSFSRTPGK
Description: as §1, §2

[10] = biological target: T6, human GP130 extracellular domain …; experiment: SPR Biacore, mAb captured via anti-hFc, 37 C
Description: as §1, §2

B1: MAb16680 (antibody, V domains shown)
VH: QVQLQQSGPGQMKSSQTLTLTCAISGDSVSSNSAIWYWIRQSPSRGLEWLGRTKFRSKWYNDFALSMKSRITINPDTSKNQFSLHLNSVTPEDTAVYYCARYKWELYFDYWGQGTLVTVSS
VL: not shown
notes: hIgG4 isotype control used
Luminex MFI signal [1]: 18700 MFI

B4: MAb16618 (antibody, V domains shown)
VH: QVQLQESGPGLVKPSETLSLTCTVSGGSISNYYWTWIRQPPGKGLEWIGHISNSGTTNYNPSLKSRVTISVDTSKNQFSLKLTSVTAADTAVYYCARLPLGIAAVDTDYYYYFGMDVWGQGTTVTVSS
VL: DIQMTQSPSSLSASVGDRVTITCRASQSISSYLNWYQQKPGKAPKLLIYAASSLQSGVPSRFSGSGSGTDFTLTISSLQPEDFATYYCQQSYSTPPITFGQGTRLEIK
notes: captured through anti-human Fc
100 nM Ag Bound (RU) [9]: 202 RU | Kd [9]: 0.236 nM | koff [9]: 0.000279 s⁻¹ | kon [9]: 1.19e+06 M⁻¹ s⁻¹ | t½ [9]: 41 min | 100 nM Ag Bound (RU) [2]: 1 RU | binding result [2]: no binding (tested: 100 nM) | 100 nM Ag Bound (RU) [3]: 6 RU | binding result [3]: no binding (tested: 100 nM) | 100 nM Ag Bound (RU) [10]: 236 RU | Kd [10]: 0.674 nM | koff [10]: 0.000934 s⁻¹ | kon [10]: 1.39e+06 M⁻¹ s⁻¹ | t½ [10]: 12 min | 100 nM Ag Bound (RU) [4]: 0 RU | 100 nM Ag Bound (RU) [5]: 2 RU

B5: MAb16614 (antibody, V domains shown)
VH: QVQLVESGGGVVQPGGSLRLSCAASGFTFSTYDIHWVRQAPGKGLEWVAVISFDGSNRNYGDSVKGRFTISRDNSDNTLFLEMNNLRFEDTAVYYCAKEGYGVDFQHWGQGTLVTVSS
VL: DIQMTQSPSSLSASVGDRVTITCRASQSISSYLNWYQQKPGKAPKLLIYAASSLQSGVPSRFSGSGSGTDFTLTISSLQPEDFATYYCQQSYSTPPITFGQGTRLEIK
notes: as for B4
100 nM Ag Bound (RU) [9]: 83 RU | Kd [9]: 4.47 nM | koff [9]: 0.000383 s⁻¹ | kon [9]: 85700 M⁻¹ s⁻¹ | t½ [9]: 30 min | 100 nM Ag Bound (RU) [2]: 1 RU | binding result [2]: no binding (tested: 100 nM) | 100 nM Ag Bound (RU) [3]: 0 RU | binding result [3]: no binding (tested: 100 nM) | 100 nM Ag Bound (RU) [10]: 85 RU | Kd [10]: 9.56 nM | koff [10]: 0.00172 s⁻¹ | kon [10]: 180000 M⁻¹ s⁻¹ | t½ [10]: 7 min | 100 nM Ag Bound (RU) [4]: 0 RU | 100 nM Ag Bound (RU) [5]: 0 RU

B7: MAb16622 (antibody, V domains shown)
VH: EVQLVESGGGVVRPGGSLRLSCTASGFTFDDYGMSWVRQAPGKGLEWVSGINWNGGRTEYADAVKGRFIISRDNAKNSLYLQMNSLRAEDTALYFCARTELRWDYWGQGTLVTVSS
VL: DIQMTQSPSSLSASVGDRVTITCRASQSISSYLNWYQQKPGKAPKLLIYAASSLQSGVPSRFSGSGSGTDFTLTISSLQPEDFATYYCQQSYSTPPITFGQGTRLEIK
notes: as for B4
100 nM Ag Bound (RU) [9]: 164 RU | Kd [9]: 0.615 nM | koff [9]: 0.000306 s⁻¹ | kon [9]: 497000 M⁻¹ s⁻¹ | t½ [9]: 38 min | 100 nM Ag Bound (RU) [2]: 1 RU | binding result [2]: no binding (tested: 100 nM) | 100 nM Ag Bound (RU) [3]: 0 RU | binding result [3]: no binding (tested: 100 nM) | 100 nM Ag Bound (RU) [10]: 201 RU | Kd [10]: 1.29 nM | koff [10]: 0.000825 s⁻¹ | kon [10]: 639000 M⁻¹ s⁻¹ | t½ [10]: 14 min | 100 nM Ag Bound (RU) [4]: 1 RU | 100 nM Ag Bound (RU) [5]: 1 RU

Now from value to binder:

100 nM Ag Bound (RU) [2]: 0 RU | 100 nM Ag Bound (RU) [3]: 2 RU | binding result [3]: no binding (tested: 100 nM) | 100 nM Ag Bound (RU) [4]: 0 RU | binding result [4]: no binding (tested: 100 nM) | 100 nM Ag Bound (RU) [5]: 1 RU
B2: MAb16680 (antibody, V domains shown)
VH: B1 VH
VL: not shown
notes: as for B4

100 nM Ag Bound [6]: 38 RU | Kd [6]: 117 nM | koff [6]: 0.0125 s⁻¹ | kon [6]: 107000 M⁻¹ s⁻¹ | t½ [6]: 0.9 min | 100 nM Ag Bound [7]: 43 RU | Kd [7]: 125 nM | koff [7]: 0.0121 s⁻¹ | kon [7]: 96500 M⁻¹ s⁻¹ | t½ [7]: 1 min | 100 nM Ag Bound [8]: 59 RU | Kd [8]: 37.4 nM | koff [8]: 0.00246 s⁻¹ | kon [8]: 65700 M⁻¹ s⁻¹ | t½ [8]: 5 min
B3: MAb16683 (antibody, V domains shown)
VH: QVQLVESGGGLVKPGGSLRLSCAASGFTFSDYYMTWIRQTPGKGLDWVSYISSSGTNKYNADSVKGRFTISRDNAKNSLYLQMNSLRAEDTAVYYCVRDPPWGMDVWGQGTTVTVSS
VL: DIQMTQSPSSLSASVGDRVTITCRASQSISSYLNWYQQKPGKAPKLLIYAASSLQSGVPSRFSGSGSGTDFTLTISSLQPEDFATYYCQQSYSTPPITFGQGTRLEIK

100 nM Ag Bound [6]: 16 RU | Kd [6]: 113 nM | koff [6]: 0.0341 s⁻¹ | kon [6]: 301000 M⁻¹ s⁻¹ | t½ [6]: 0.3 min | 100 nM Ag Bound [7]: 15 RU | Kd [7]: 124 nM | koff [7]: 0.0386 s⁻¹ | kon [7]: 311000 M⁻¹ s⁻¹ | t½ [7]: 0.3 min | 100 nM Ag Bound [8]: 20 RU | Kd [8]: 132 nM | koff [8]: 0.0168 s⁻¹ | kon [8]: 128000 M⁻¹ s⁻¹ | t½ [8]: 0.7 min
B6: MAb16682 (antibody, V domains shown)
VH: EVQLVESGGGLVQPGGSLRLSCAASGFTFSTYWMNWVRQAPGKGLEWVANIKEDGSEKYYVDSVKGRFTISRDNAKNSLYLQMNSLRAEDTAVYYCAREGFGVVTYIWGQGTMVTVSS
VL: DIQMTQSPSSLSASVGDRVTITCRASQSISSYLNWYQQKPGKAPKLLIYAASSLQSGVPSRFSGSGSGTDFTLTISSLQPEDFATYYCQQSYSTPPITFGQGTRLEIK
